Experimental data as given in paper PMC12198772 (PNAS Nexus, 2025).
Several values for one entry are separate records, joined by “and”; a condition that tells them apart may be missing. Equal values may be shown once. Read-outs that look alike come from different tables or passages of the source.

Legend:
Assay in all cases: BLI
[1] = biological target: T1, human eye lens-specific protein 20, histidine-tagged (human) (UniProt P55344)
T1 sequence: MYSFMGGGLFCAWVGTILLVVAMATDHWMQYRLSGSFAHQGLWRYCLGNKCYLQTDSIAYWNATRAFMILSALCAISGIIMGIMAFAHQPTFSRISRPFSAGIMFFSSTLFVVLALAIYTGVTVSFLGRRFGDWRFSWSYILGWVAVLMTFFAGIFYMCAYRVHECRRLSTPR

human occludin = human occludin (Homo sapiens, UniProt Q16625)
Sequence of human occludin (Q16625 whole entry, the tested form may be a part): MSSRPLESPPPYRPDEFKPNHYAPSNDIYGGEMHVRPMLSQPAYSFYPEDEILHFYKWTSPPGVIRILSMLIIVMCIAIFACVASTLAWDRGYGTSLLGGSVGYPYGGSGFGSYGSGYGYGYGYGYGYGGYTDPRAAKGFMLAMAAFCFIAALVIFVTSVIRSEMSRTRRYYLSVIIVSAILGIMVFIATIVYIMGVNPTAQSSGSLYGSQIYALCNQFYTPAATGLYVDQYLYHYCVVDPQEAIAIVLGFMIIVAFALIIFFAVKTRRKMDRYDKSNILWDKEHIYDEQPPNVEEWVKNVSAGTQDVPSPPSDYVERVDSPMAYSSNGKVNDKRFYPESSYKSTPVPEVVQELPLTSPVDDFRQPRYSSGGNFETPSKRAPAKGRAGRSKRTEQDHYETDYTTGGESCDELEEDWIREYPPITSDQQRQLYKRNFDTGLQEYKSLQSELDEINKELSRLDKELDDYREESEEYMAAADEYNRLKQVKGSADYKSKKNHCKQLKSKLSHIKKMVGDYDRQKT

[2] = biological target: C-terminal domain of Clostridium perfringens enterotoxin, tag removed (Clostridium perfringens, UniProt P01558)
human claudin-5 [3] = biological target: T2, human claudin-5 (human, UniProt O00501)
T2 sequence (O00501 whole entry): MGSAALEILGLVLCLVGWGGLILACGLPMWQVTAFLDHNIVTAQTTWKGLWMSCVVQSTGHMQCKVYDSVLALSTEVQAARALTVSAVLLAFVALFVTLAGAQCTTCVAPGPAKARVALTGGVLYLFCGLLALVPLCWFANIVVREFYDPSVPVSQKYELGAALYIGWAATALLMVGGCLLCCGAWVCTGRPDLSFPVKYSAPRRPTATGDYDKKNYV

human claudin-6 [4] = biological target: T3, human claudin-6 (human, UniProt P56747)
human claudin-9 [5] = biological target: T4, human claudin-9 (human, UniProt O95484)
murine claudin-15 [6] = biological target: T5, murine claudin-15 (mouse, UniProt Q9Z0S5)
T5 sequence (Q9Z0S5 whole entry): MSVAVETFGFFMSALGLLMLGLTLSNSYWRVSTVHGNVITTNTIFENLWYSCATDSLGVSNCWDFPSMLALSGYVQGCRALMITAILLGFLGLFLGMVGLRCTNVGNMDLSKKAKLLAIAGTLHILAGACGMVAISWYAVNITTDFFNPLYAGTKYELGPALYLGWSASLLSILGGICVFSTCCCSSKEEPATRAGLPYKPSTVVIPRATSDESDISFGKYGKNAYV

human claudin-17 [7] = biological target: T6, human claudin-17 (human, UniProt P56750)
[8] = biological target: T7, human claudin-18 splice variant 18.1 (human, UniProt P56856)
[9] = biological target: T8, human claudin-18 splice variant 18.2 (human, UniProt P56856-2)
human claudin-19 [10] = biological target: T9, human claudin-19 (human, UniProt Q8N6F1)
human claudin-1 [11] = biological target: T10, human claudin-1 (human, UniProt O95832)
T10 sequence (O95832 whole entry): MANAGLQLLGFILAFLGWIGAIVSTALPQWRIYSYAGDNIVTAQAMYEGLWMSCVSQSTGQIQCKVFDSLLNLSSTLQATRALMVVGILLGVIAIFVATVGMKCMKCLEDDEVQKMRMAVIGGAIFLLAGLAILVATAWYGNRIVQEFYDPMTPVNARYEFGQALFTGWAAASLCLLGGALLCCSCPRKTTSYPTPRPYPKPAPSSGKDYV

human claudin-3 [12] = biological target: T11, human claudin-3 (human, UniProt O15551)
T11 sequence (O15551 whole entry): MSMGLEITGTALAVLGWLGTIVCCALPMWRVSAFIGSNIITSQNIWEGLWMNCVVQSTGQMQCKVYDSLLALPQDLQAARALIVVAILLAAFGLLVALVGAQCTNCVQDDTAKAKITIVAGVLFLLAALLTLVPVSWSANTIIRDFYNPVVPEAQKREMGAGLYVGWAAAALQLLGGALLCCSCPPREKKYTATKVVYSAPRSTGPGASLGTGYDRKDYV

murine claudin-3 = murine claudin-3 (mouse, UniProt Q9Z0G9)
Sequence of murine claudin-3 (Q9Z0G9 whole entry): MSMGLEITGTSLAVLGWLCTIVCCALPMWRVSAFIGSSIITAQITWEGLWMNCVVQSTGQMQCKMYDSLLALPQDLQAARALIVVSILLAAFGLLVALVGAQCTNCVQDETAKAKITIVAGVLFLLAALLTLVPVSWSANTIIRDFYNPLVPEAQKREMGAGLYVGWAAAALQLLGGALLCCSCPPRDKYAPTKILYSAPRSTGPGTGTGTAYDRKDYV

human claudin-4 [13] = biological target: T12, human claudin-4 (human, UniProt O14493)
T12 sequence (O14493 whole entry): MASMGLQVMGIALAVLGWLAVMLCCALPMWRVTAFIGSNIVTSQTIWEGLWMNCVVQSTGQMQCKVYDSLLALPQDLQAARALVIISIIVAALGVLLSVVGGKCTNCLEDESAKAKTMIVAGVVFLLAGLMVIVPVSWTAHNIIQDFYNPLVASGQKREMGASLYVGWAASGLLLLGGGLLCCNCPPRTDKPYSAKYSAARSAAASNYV

murine claudin-4 [14] = biological target: murine claudin-4 (mouse, UniProt O35054)
human claudin-5 [15] = biological target: T2, human claudin-5; remark: listed apart in the source
human claudin-6 [16] = biological target: T3, human claudin-6; remark: listed apart in the source
human claudin-9 [17] = biological target: T4, human claudin-9; remark: listed apart in the source
murine claudin-15 [18] = biological target: T5, murine claudin-15; remark: listed apart in the source
human claudin-17 [19] = biological target: T6, human claudin-17; remark: listed apart in the source
[20] = biological target: T7, human claudin-18 splice variant 18.1; remark: listed apart in the source
[21] = biological target: T8, human claudin-18 splice variant 18.2; remark: listed apart in the source
human claudin-19 [22] = biological target: T9, human claudin-19; remark: listed apart in the source
[23] = biological target: human peripheral myelin protein 22 (Homo sapiens, UniProt Q01453)
Sequence of human peripheral myelin protein 22 (Q01453 whole entry): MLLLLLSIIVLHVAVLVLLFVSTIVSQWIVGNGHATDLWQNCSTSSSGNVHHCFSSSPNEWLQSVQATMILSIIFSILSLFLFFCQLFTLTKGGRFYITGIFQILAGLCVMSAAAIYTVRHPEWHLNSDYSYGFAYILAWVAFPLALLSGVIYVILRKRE

[24] = biological target: Kune-kune from Drosophila melanogaster (Drosophila melanogaster, UniProt A1Z6H0)
human claudin-1 [25] = biological target: T10, human claudin-1; remark: listed apart in the source
human claudin-3 [26] = biological target: T11, human claudin-3; remark: listed apart in the source
human claudin-4 [27] = biological target: T12, human claudin-4; remark: listed apart in the source
human claudin-6 [28] = biological target: T13, human claudin-6 (human, UniProt P56747 1-220)
T13 sequence: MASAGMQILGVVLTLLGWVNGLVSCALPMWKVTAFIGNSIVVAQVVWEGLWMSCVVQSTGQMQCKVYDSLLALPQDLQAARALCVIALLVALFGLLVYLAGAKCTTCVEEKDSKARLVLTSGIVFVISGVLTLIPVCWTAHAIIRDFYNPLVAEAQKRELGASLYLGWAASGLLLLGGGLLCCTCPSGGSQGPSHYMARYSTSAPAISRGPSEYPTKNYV

human claudin-9 [29] = biological target: T14, human claudin-9 (human, UniProt O95484 1-217)
T14 sequence: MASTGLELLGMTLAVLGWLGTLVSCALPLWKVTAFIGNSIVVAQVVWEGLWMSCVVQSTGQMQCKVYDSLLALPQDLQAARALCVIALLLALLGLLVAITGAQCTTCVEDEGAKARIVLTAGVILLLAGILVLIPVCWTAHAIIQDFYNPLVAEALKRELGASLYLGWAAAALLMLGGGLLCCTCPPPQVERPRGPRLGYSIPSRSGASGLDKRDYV

human claudin-17 [30] = biological target: T15, human claudin-17 (human, UniProt P56750 1-224)
T15 sequence: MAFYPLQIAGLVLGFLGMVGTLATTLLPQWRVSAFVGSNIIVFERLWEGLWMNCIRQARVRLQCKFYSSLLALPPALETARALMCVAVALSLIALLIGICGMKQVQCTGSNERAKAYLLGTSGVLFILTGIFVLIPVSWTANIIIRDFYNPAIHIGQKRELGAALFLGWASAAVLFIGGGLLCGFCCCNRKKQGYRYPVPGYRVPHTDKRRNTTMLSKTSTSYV

human claudin-19 [31] = biological target: T16, human claudin-19 (human, UniProt Q8N6F1 1-224)
T16 sequence: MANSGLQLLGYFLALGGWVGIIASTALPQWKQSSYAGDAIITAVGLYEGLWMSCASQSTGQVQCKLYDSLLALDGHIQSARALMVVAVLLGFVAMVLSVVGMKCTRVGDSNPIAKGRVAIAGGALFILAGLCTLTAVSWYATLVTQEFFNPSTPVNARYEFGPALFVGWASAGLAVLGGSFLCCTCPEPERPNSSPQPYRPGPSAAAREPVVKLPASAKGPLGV

murine claudin-4 [32] = biological target: T17, murine claudin-4 (mouse, UniProt O35054 1-210)
T17 sequence: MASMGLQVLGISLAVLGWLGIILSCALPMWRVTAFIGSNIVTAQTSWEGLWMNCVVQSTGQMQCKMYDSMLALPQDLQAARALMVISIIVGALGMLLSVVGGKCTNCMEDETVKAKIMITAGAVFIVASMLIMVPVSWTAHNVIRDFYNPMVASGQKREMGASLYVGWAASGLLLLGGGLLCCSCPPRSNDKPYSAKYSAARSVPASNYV

B1: COP-1 synthetic antibody fragment (sFab) without histidine tag (Fab, V domains shown)
VH: EVQLVESGGGLVQPGGSLRLSCAASGFNFSSSYIHWVRQAPGKGLEWVASISSSSGSTSYADSVKGRFTISADTSKNTAYLQMNSLRAEDTAVYYCARWFHPWWWWEYLFRGAIDYWGQGTLVTVSS
VL: DIQMTQSPSSLSASVGDRVTITCRASQSVSSAVAWYQQKPGKAPKLLIYSASSLYSGVPSRFSGSRSGTDFTLTISSLQPEDFATYYCQQSSSSLITFGQGTKVEIK
Kd [1]: 2.78 µM | koff [1]: 0.11 s⁻¹

B2: COP-1 synthetic antibody fragment (sFab) with C-terminal histidine tag (Fab, V domains shown)
VH: EVQLVESGGGLVQPGGSLRLSCAASGFNFSSSYIHWVRQAPGKGLEWVASISSSSGSTSYADSVKGRFTISADTSKNTAYLQMNSLRAEDTAVYYCARWFHPWWWWEYLFRGAIDYWGQGTLVTVSS
VL: DIQMTQSPSSLSASVGDRVTITCRASQSVSSAVAWYQQKPGKAPKLLIYSASSLYSGVPSRFSGSRSGTDFTLTISSLQPEDFATYYCQQSSSSLITFGQGTKVEIK
binding result (human occludin): no binding (tested: 500 nM) | binding result [2]: no binding | Kd (human claudin-5 [3]): 0.072 µM and 0.0655 µM | Kd (human claudin-6 [4]): 0.059 ± 0.0009 µM | Kd (human claudin-9 [5]): 0.0699 ± 0.0012 µM | Kd (murine claudin-15 [6]): 0.0633 µM and 0.0612 µM | Kd (human claudin-17 [7]): 0.0655 ± 0.0009 µM | Kd [8]: 0.0834 µM and 0.0567 µM | Kd [9]: 0.0628 µM and 0.0556 µM | Kd (human claudin-19 [10]): 0.0624 ± 0.0011 µM | Kd (human claudin-1 [11]): 0.0763 µM and 0.0732 µM | Kd (human claudin-3 [12]): 0.0642 ± 0.0011 µM | Kd (murine claudin-3): 0.0905 ± 0.0012 µM | Kd (human claudin-4 [13]): 0.0728 ± 0.0009 µM | Kd (murine claudin-4 [14]): 0.0996 ± 0.0012 µM | Kd (human claudin-5 [15]): 0.0758 ± 0.0005 µM | koff (human claudin-5 [15]): 0.0015 s⁻¹ | kon (human claudin-5 [15]): 19000 M⁻¹ s⁻¹ | t1/2 (human claudin-5 [15]): 7.7 min | Kd (human claudin-6 [16]): 0.0595 ± 0.0004 µM | koff (human claudin-6 [16]): 0.0011 s⁻¹ | kon (human claudin-6 [16]): 18000 M⁻¹ s⁻¹ | t1/2 (human claudin-6 [16]): 10.5 min | Kd (human claudin-9 [17]): 0.066 ± 0.0004 µM | koff (human claudin-9 [17]): 0.0015 s⁻¹ | kon (human claudin-9 [17]): 22000 M⁻¹ s⁻¹ | t1/2 (human claudin-9 [17]): 7.7 min | Kd (murine claudin-15 [18]): 0.059 ± 0.0005 µM | koff (murine claudin-15 [18]): 0.0012 s⁻¹ | kon (murine claudin-15 [18]): 21000 M⁻¹ s⁻¹ | t1/2 (murine claudin-15 [18]): 9.6 min | Kd (human claudin-17 [19]): 0.0802 ± 0.0006 µM | koff (human claudin-17 [19]): 0.0015 s⁻¹ | kon (human claudin-17 [19]): 19000 M⁻¹ s⁻¹ | t1/2 (human claudin-17 [19]): 7.7 min | Kd [20]: 0.0924 ± 0.0005 µM | koff [20]: 0.0014 s⁻¹ | kon [20]: 16000 M⁻¹ s⁻¹ | t1/2 [20]: 8.3 min | Kd [21]: 0.0664 ± 0.0005 µM | koff [21]: 0.0009 s⁻¹ | kon [21]: 13000 M⁻¹ s⁻¹ | t1/2 [21]: 12.8 min | Kd (human claudin-19 [22]): 0.0622 ± 0.0004 µM | koff (human claudin-19 [22]): 0.0011 s⁻¹ | kon (human claudin-19 [22]): 17000 M⁻¹ s⁻¹ | t1/2 (human claudin-19 [22]): 10.5 min | Kd [23]: 0.1095 ± 0.0008 µM | koff [23]: 0.002 s⁻¹ | kon [23]: 18000 M⁻¹ s⁻¹ | t1/2 [23]: 5.8 min | Kd [24]: 0.238 ± 0.0029 µM | koff [24]: 0.0044 s⁻¹ | kon [24]: 18000 M⁻¹ s⁻¹ | t1/2 [24]: 2.7 min | Kd (human claudin-1 [25]): 0.0613 ± 0.0005 µM | koff (human claudin-1 [25]): 0.0009 s⁻¹ | kon (human claudin-1 [25]): 15000 M⁻¹ s⁻¹ | t1/2 (human claudin-1 [25]): 12.8 min | Kd (human claudin-3 [26]): 0.0579 ± 0.0005 µM | koff (human claudin-3 [26]): 0.0012 s⁻¹ | kon (human claudin-3 [26]): 21000 M⁻¹ s⁻¹ | t1/2 (human claudin-3 [26]): 9.6 min | Kd (human claudin-4 [27]): 0.0706 µM and 0.106 µM

B3: C-terminal domain of Clostridium perfringens enterotoxin, histidine-tagged (domain or fragment)
chain: EILDLAAATERLNLTDALNSNPAGNLYDWRSSNSYPWTQKLNLHLTITATGQKYRILASKIVDFNIYSNNFNNLVKLEQSLGDGVKDHYVDISLDAGQYVLVMKANSSYSGNYPYSILFQKF
Kd (human claudin-6 [28]): 0.0514 µM | Kd (human claudin-9 [29]): < 0.02 µM | Kd (human claudin-17 [30]): 0.027 µM | Kd (human claudin-19 [31]): 0.0275 µM | Kd (murine claudin-4 [32]): < 0.02 µM
